What was measured:
Set-up in all cases: species or system mice
[1] = test system: LnCAP CDX xenograft tumor; assay: Tissue biodistribution in LnCAP tumor mouse model; settings: male, SCID, in vivo, iv
Source text: (§1) LnCAP and 22RV1 CDX xenograft tumor models were generated by inoculating 5×10^6 cells/site subcutaneously in male SCID or nude mice (Vital River), respectively. Animals were housed according to IACUC guidance and had accessed to food and water ad libitium. Animals were used for biodistribution study when the tumor dimensions reached around 0.2-0.3 cm^3. […] At each tome point, animals were sacrificed and tissues were collected, weighted, and subjected to radioactivity measurements using gamma counter. Radioactivity in the tissues was presented in % ID/g (percent of injected dose per gram).

[2] = Tissue biodistribution in LnCAP tumor mouse model; settings: male, SCID, in vivo, iv, total radioactivity
Source text: as §1

[3] = Tissue biodistribution in 22Rv1 tumor mouse model; settings: male, nude, in vivo, iv, total radioactivity
Source text: as §1

[4] = test system: 22RV1 CDX xenograft tumor; assay: Tissue biodistribution in 22Rv1 tumor mouse model; settings: male, nude, in vivo, iv
Source text: as §1

[5] = T/NT ratio Tumor/Salivary Gland
[6] = Tissue biodistribution: Salivary Gland

## O=C(O)CN1CCN(CC(=O)O)CCN(CC(=O)NC23CCC(Nc4c(N[C@@H](Cc5c6ccccc6cc6ccccc56)C(=O)NCCCC[C@H](NC(=O)N[C@@H](CNC(=O)C(=O)O)C(=O)O)C(=O)O)c(=O)c4=O)(CC2)CC3)CCN(CC(=O)O)CC1 [[^177Lu]Lu-E8, metal not drawn]
[1]
  T/NT ratio Tumor/Bone: 169.77
  T/NT ratio Tumor/Salivary Gland: 422.38
[2]
  tissue uptake dose at 2 h: 16.4 ± 1.14 %ID
  tissue uptake dose at 6 h: 4.69 ± 0.79 %ID
  tissue uptake dose at 24 h: 3.21 ± 2.01 %ID
  tissue uptake dose at 72 h: 0.99 ± 0.2 %ID
  tissue uptake dose at 168 h: 0.91 ± 0.03 %ID
[2]; T/NT ratio Tumor/Bone
  tissue to tissue ratio: 183
[2]; [5]
  tissue to tissue ratio: 220
[2]; Tissue biodistribution: Blood
  tissue uptake at 2 h: 0.87 ± 0.21 %ID/g
  tissue uptake at 6 h: 0.16 ± 0.04 %ID/g
  tissue uptake at 24 h: 0.03 ± 0.01 %ID/g
  tissue uptake at 72 h: 0.03 ± 0.01 %ID/g
  tissue uptake at 168 h: 0.03 ± 0.01 %ID/g
[2]; Tissue biodistribution: Bone
  tissue uptake at 2 h: 0.74 ± 0.16 %ID/g
  tissue uptake at 6 h: 0.33 ± 0.11 %ID/g
  tissue uptake at 24 h: 0.19 ± 0.01 %ID/g
  tissue uptake at 72 h: 0.22 ± 0.02 %ID/g
  tissue uptake at 168 h: 0.26 ± 0.04 %ID/g
[2]; Tissue biodistribution: Gland
  tissue uptake at 2 h: 1.96 ± 0.74 %ID/g
  tissue uptake at 6 h: 0.51 ± 0.1 %ID/g
  tissue uptake at 24 h: 0.18 ± 0.04 %ID/g
  tissue uptake at 72 h: 0.11 ± 0.01 %ID/g
  tissue uptake at 168 h: 0.1 %ID/g
[2]; Tissue biodistribution: Heart
  tissue uptake at 2 h: 1 ± 0.4 %ID/g
  tissue uptake at 6 h: 0.26 ± 0.13 %ID/g
  tissue uptake at 24 h: 0.11 %ID/g
  tissue uptake at 72 h: 0.09 %ID/g
  tissue uptake at 168 h: 0.11 %ID/g
[2]; Tissue biodistribution: Kidney
  tissue uptake at 2 h: 133 ± 12.3 %ID/g
  tissue uptake at 6 h: 122 ± 20.9 %ID/g
  tissue uptake at 24 h: 15.7 ± 4.09 %ID/g
  tissue uptake at 72 h: 1.28 ± 0.08 %ID/g
  tissue uptake at 168 h: 0.69 ± 0.32 %ID/g
[2]; Tissue biodistribution: Liver
  tissue uptake at 2 h: 0.58 ± 0.17 %ID/g
  tissue uptake at 6 h: 0.33 ± 0.05 %ID/g
  tissue uptake at 24 h: 0.23 ± 0.03 %ID/g
  tissue uptake at 72 h: 0.18 ± 0.02 %ID/g
  tissue uptake at 168 h: 0.15 ± 0.03 %ID/g
[2]; Tissue biodistribution: Lung
  tissue uptake at 2 h: 2.97 ± 0.89 %ID/g
  tissue uptake at 6 h: 0.75 ± 0.14 %ID/g
  tissue uptake at 24 h: 0.18 ± 0.03 %ID/g
  tissue uptake at 72 h: 0.08 ± 0.01 %ID/g
  tissue uptake at 168 h: 0.1 ± 0.04 %ID/g
[2]; Tissue biodistribution: Muscle
  tissue uptake at 2 h: 0.46 ± 0.09 %ID/g
  tissue uptake at 6 h: 0.14 ± 0.04 %ID/g
  tissue uptake at 24 h: 0.04 ± 0.01 %ID/g
  tissue uptake at 72 h: 0.03 %ID/g
  tissue uptake at 168 h: 0.04 ± 0.01 %ID/g
[2]; Tissue biodistribution: Spleen
  tissue uptake at 2 h: 3.87 ± 1.15 %ID/g
  tissue uptake at 6 h: 1.05 ± 0.15 %ID/g
  tissue uptake at 24 h: 0.39 ± 0.14 %ID/g
  tissue uptake at 72 h: 0.31 ± 0.08 %ID/g
  tissue uptake at 168 h: 0.43 ± 0.13 %ID/g
[2]; Tissue biodistribution: Tumor
  tissue uptake at 2 h: 30.8 ± 6.34 %ID/g
  tissue uptake at 6 h: 35.7 ± 5.05 %ID/g
  tissue uptake at 24 h: 37.9 ± 8.46 %ID/g
  tissue uptake at 72 h: 48.2 ± 10 %ID/g
  tissue uptake at 168 h: 44.3 ± 8.77 %ID/g
[2]; Tumor/Blood
  tissue to tissue ratio at 2 h: 38.4 ± 18.7
  tissue to tissue ratio at 6 h: 237 ± 57.6
  tissue to tissue ratio at 24 h: 1150 ± 312
  tissue to tissue ratio at 72 h: 1690 ± 343
  tissue to tissue ratio at 168 h: 1630 ± 208
[2]; Tumor/Bone
  tissue to tissue ratio at 2 h: 44.7 ± 20.4
  tissue to tissue ratio at 6 h: 117 ± 45.7
  tissue to tissue ratio at 24 h: 200 ± 55.6
  tissue to tissue ratio at 72 h: 223 ± 43.2
  tissue to tissue ratio at 168 h: 170 ± 19.3
[2]; Tumor/Kidney
  tissue to tissue ratio at 2 h: 0.24 ± 0.07
  tissue to tissue ratio at 6 h: 0.3 ± 0.05
  tissue to tissue ratio at 24 h: 2.59 ± 1.05
  tissue to tissue ratio at 72 h: 37.5 ± 6.4
  tissue to tissue ratio at 168 h: 70.9 ± 22.8
[3]
  tissue uptake dose at 2 h: 8.22 ± 0.38 %ID
  tissue uptake dose at 6 h: 5.13 ± 0.24 %ID
  tissue uptake dose at 24 h: 2.13 ± 0.07 %ID
  tissue uptake dose at 72 h: 0.81 ± 0.01 %ID
  tissue uptake dose at 168 h: 1.34 ± 0.01 %ID
[3]; T/NT ratio Tumor/Blood
  tissue to tissue ratio: 570
[3]; [5]
  tissue to tissue ratio: 201
[3]; Tissue biodistribution: Blood
  tissue uptake at 2 h: 0.4 ± 0.14 %ID/g
  tissue uptake at 6 h: 0.08 ± 0.04 %ID/g
  tissue uptake at 24 h: 0.03 %ID/g
  tissue uptake at 72 h: 0.02 %ID/g
  tissue uptake at 168 h: 0.02 ± 0.01 %ID/g
[3]; Tissue biodistribution: Bone
  tissue uptake at 2 h: 0.47 ± 0.09 %ID/g
  tissue uptake at 6 h: 0.26 ± 0.03 %ID/g
  tissue uptake at 24 h: 0.26 ± 0.04 %ID/g
  tissue uptake at 72 h: 0.34 ± 0.01 %ID/g
  tissue uptake at 168 h: 0.43 ± 0.1 %ID/g
[3]; Tissue biodistribution: Heart
  tissue uptake at 2 h: 0.57 ± 0.28 %ID/g
  tissue uptake at 6 h: 0.1 ± 0.01 %ID/g
  tissue uptake at 24 h: 0.07 %ID/g
  tissue uptake at 72 h: 0.07 ± 0.01 %ID/g
  tissue uptake at 168 h: 0.08 ± 0.01 %ID/g
[3]; Tissue biodistribution: Kidney
  tissue uptake at 2 h: 136 ± 16.7 %ID/g
  tissue uptake at 6 h: 56.5 ± 18.9 %ID/g
  tissue uptake at 24 h: 5.86 ± 1.87 %ID/g
  tissue uptake at 72 h: 0.99 ± 0.04 %ID/g
  tissue uptake at 168 h: 0.26 ± 0.01 %ID/g
[3]; Tissue biodistribution: Liver
  tissue uptake at 2 h: 0.34 ± 0.07 %ID/g
  tissue uptake at 6 h: 0.19 ± 0.03 %ID/g
  tissue uptake at 24 h: 0.18 ± 0.05 %ID/g
  tissue uptake at 72 h: 0.22 ± 0.01 %ID/g
  tissue uptake at 168 h: 0.23 ± 0.08 %ID/g
[3]; Tissue biodistribution: Lung
  tissue uptake at 2 h: 1.14 ± 0.31 %ID/g
  tissue uptake at 6 h: 0.32 ± 0.11 %ID/g
  tissue uptake at 24 h: 0.12 ± 0.02 %ID/g
  tissue uptake at 72 h: 0.09 ± 0.01 %ID/g
  tissue uptake at 168 h: 0.07 ± 0.02 %ID/g
[3]; Tissue biodistribution: Muscle
  tissue uptake at 2 h: 0.23 ± 0.03 %ID/g
  tissue uptake at 6 h: 0.08 ± 0.01 %ID/g
  tissue uptake at 24 h: 0.03 %ID/g
  tissue uptake at 72 h: 0.02 %ID/g
  tissue uptake at 168 h: 0.03 ± 0.01 %ID/g
[3]; [6]
  tissue uptake at 2 h: 0.57 ± 0.19 %ID/g
  tissue uptake at 6 h: 0.2 ± 0.07 %ID/g
  tissue uptake at 24 h: 0.08 %ID/g
  tissue uptake at 72 h: 0.09 ± 0.01 %ID/g
  tissue uptake at 168 h: 0.06 ± 0.01 %ID/g
[3]; Tissue biodistribution: Spleen
  tissue uptake at 2 h: 6.44 ± 3.19 %ID/g
  tissue uptake at 6 h: 0.88 ± 0.26 %ID/g
  tissue uptake at 24 h: 0.28 ± 0.05 %ID/g
  tissue uptake at 72 h: 0.35 ± 0.01 %ID/g
  tissue uptake at 168 h: 0.39 ± 0.11 %ID/g
[3]; Tissue biodistribution: Tumor
  tissue uptake at 2 h: 19.7 ± 9.31 %ID/g
  tissue uptake at 6 h: 18.8 ± 1.68 %ID/g
  tissue uptake at 24 h: 22.7 ± 7.83 %ID/g
  tissue uptake at 72 h: 24.3 ± 1.92 %ID/g
  tissue uptake at 168 h: 11.9 ± 4.35 %ID/g
[3]; Tumor/Blood
  tissue to tissue ratio at 2 h: 62.7 ± 54.4
  tissue to tissue ratio at 6 h: 277 ± 98.9
  tissue to tissue ratio at 24 h: 754 ± 166
  tissue to tissue ratio at 72 h: 1120 ± 40
  tissue to tissue ratio at 168 h: 555 ± 353
[3]; Tumor/Bone
  tissue to tissue ratio at 2 h: 41.5 ± 19.5
  tissue to tissue ratio at 6 h: 73.6 ± 6.68
  tissue to tissue ratio at 24 h: 87.2 ± 16.1
  tissue to tissue ratio at 72 h: 72.1 ± 4.85
  tissue to tissue ratio at 168 h: 27.7 ± 7.2
[3]; Tumor/Kidney
  tissue to tissue ratio at 2 h: 0.15 ± 0.09
  tissue to tissue ratio at 6 h: 0.35 ± 0.11
  tissue to tissue ratio at 24 h: 3.97 ± 0.93
  tissue to tissue ratio at 72 h: 24.5 ± 2.46
  tissue to tissue ratio at 168 h: 45.6 ± 16.3
[4]
  T/NT ratio Tumor/Blood: 497.77
  T/NT ratio Tumor/Salivary Gland: 183.55
